From article PMC8892010

Legend:
[1] = inside-out patch clamp, G-V Boltzmann fits, 0 Ca2+; settings: glycan lost, untreated cells; for other: BK channel gating modulation: control: γ2 WT
[2] = whole-cell lysate anti-FLAG immunoblot; settings: glycan lost, untreated cells
[3] = inside-out patch clamp, G-V, 0 Ca2+; settings: glycan lost; control: γ3 WT, untreated cells
[4] = cell surface immunoprecipitation, N-terminal FLAG; settings: glycan lost, untreated cells; for localisation_or_trafficking, other: percent decrease: control: γ1 WT

B1: BK channel γ2 subunit (LRRC52): N148Q (protein)
parent chain: MSLASGPGPGWLLFSFGMGLVSGSKCPNNCLCQAQEVICTGKQLTEYPLDIPLNTRRLFLNENRITSLPAMHLGLLSDLVYLDCQNNRIREVMDYTFIGVFKLIYLDLSSNNLTSISPFTFSVLSNLVQLNIANNPHLLSLHKFTFANTTSLRYLDLRNTGLQTLDSAALYHLTTLETLFLSGNPWKCNCSFLDFAIFLIVFHMDPSDDLNATCVEPTELTGWPITRVGNPLRYMCITHLDHKDYIFLLLIGFCIFAAGTVAAWLTGVCAVLYQNTRHKSSEEDEDEAGTRVEVSRRIFQTQTSSVQEFPQLI
other: BK channel gating modulation [1]: decreases

B2: BK channel γ2 subunit (LRRC52): N112Q (protein)
parent chain: MSLASGPGPGWLLFSFGMGLVSGSKCPNNCLCQAQEVICTGKQLTEYPLDIPLNTRRLFLNENRITSLPAMHLGLLSDLVYLDCQNNRIREVMDYTFIGVFKLIYLDLSSNNLTSISPFTFSVLSNLVQLNIANNPHLLSLHKFTFANTTSLRYLDLRNTGLQTLDSAALYHLTTLETLFLSGNPWKCNCSFLDFAIFLIVFHMDPSDDLNATCVEPTELTGWPITRVGNPLRYMCITHLDHKDYIFLLLIGFCIFAAGTVAAWLTGVCAVLYQNTRHKSSEEDEDEAGTRVEVSRRIFQTQTSSVQEFPQLI
other: BK channel gating modulation [1]: decreases

B3: BK channel γ2 subunit (LRRC52): N112Q/N148Q (protein)
parent chain: MSLASGPGPGWLLFSFGMGLVSGSKCPNNCLCQAQEVICTGKQLTEYPLDIPLNTRRLFLNENRITSLPAMHLGLLSDLVYLDCQNNRIREVMDYTFIGVFKLIYLDLSSNNLTSISPFTFSVLSNLVQLNIANNPHLLSLHKFTFANTTSLRYLDLRNTGLQTLDSAALYHLTTLETLFLSGNPWKCNCSFLDFAIFLIVFHMDPSDDLNATCVEPTELTGWPITRVGNPLRYMCITHLDHKDYIFLLLIGFCIFAAGTVAAWLTGVCAVLYQNTRHKSSEEDEDEAGTRVEVSRRIFQTQTSSVQEFPQLI
other: BK channel gating modulation [1]: decreases

B4: BK channel γ2 subunit (LRRC52): N211Q (protein)
parent chain: MSLASGPGPGWLLFSFGMGLVSGSKCPNNCLCQAQEVICTGKQLTEYPLDIPLNTRRLFLNENRITSLPAMHLGLLSDLVYLDCQNNRIREVMDYTFIGVFKLIYLDLSSNNLTSISPFTFSVLSNLVQLNIANNPHLLSLHKFTFANTTSLRYLDLRNTGLQTLDSAALYHLTTLETLFLSGNPWKCNCSFLDFAIFLIVFHMDPSDDLNATCVEPTELTGWPITRVGNPLRYMCITHLDHKDYIFLLLIGFCIFAAGTVAAWLTGVCAVLYQNTRHKSSEEDEDEAGTRVEVSRRIFQTQTSSVQEFPQLI
other: BK channel gating modulation [1]: decreases

B5: BK channel γ2 subunit (LRRC52): N112Q/N211Q (protein)
parent chain: MSLASGPGPGWLLFSFGMGLVSGSKCPNNCLCQAQEVICTGKQLTEYPLDIPLNTRRLFLNENRITSLPAMHLGLLSDLVYLDCQNNRIREVMDYTFIGVFKLIYLDLSSNNLTSISPFTFSVLSNLVQLNIANNPHLLSLHKFTFANTTSLRYLDLRNTGLQTLDSAALYHLTTLETLFLSGNPWKCNCSFLDFAIFLIVFHMDPSDDLNATCVEPTELTGWPITRVGNPLRYMCITHLDHKDYIFLLLIGFCIFAAGTVAAWLTGVCAVLYQNTRHKSSEEDEDEAGTRVEVSRRIFQTQTSSVQEFPQLI
other: BK channel gating modulation [1]: decreases

B6: BK channel γ2 subunit (LRRC52): triple-site mutant (N112Q/N148Q/N211Q) (protein)
parent chain: MSLASGPGPGWLLFSFGMGLVSGSKCPNNCLCQAQEVICTGKQLTEYPLDIPLNTRRLFLNENRITSLPAMHLGLLSDLVYLDCQNNRIREVMDYTFIGVFKLIYLDLSSNNLTSISPFTFSVLSNLVQLNIANNPHLLSLHKFTFANTTSLRYLDLRNTGLQTLDSAALYHLTTLETLFLSGNPWKCNCSFLDFAIFLIVFHMDPSDDLNATCVEPTELTGWPITRVGNPLRYMCITHLDHKDYIFLLLIGFCIFAAGTVAAWLTGVCAVLYQNTRHKSSEEDEDEAGTRVEVSRRIFQTQTSSVQEFPQLI
expression_or_secretion ([2]; control: γ2 WT): decreases

B7: BK channel γ2 subunit (LRRC52): N148Q/N211Q (protein)
parent chain: MSLASGPGPGWLLFSFGMGLVSGSKCPNNCLCQAQEVICTGKQLTEYPLDIPLNTRRLFLNENRITSLPAMHLGLLSDLVYLDCQNNRIREVMDYTFIGVFKLIYLDLSSNNLTSISPFTFSVLSNLVQLNIANNPHLLSLHKFTFANTTSLRYLDLRNTGLQTLDSAALYHLTTLETLFLSGNPWKCNCSFLDFAIFLIVFHMDPSDDLNATCVEPTELTGWPITRVGNPLRYMCITHLDHKDYIFLLLIGFCIFAAGTVAAWLTGVCAVLYQNTRHKSSEEDEDEAGTRVEVSRRIFQTQTSSVQEFPQLI
other: BK channel gating modulation [1]: decreases

B8: BK channel γ2 subunit (LRRC52): tunicamycin (protein)
parent chain: MSLASGPGPGWLLFSFGMGLVSGSKCPNNCLCQAQEVICTGKQLTEYPLDIPLNTRRLFLNENRITSLPAMHLGLLSDLVYLDCQNNRIREVMDYTFIGVFKLIYLDLSSNNLTSISPFTFSVLSNLVQLNIANNPHLLSLHKFTFANTTSLRYLDLRNTGLQTLDSAALYHLTTLETLFLSGNPWKCNCSFLDFAIFLIVFHMDPSDDLNATCVEPTELTGWPITRVGNPLRYMCITHLDHKDYIFLLLIGFCIFAAGTVAAWLTGVCAVLYQNTRHKSSEEDEDEAGTRVEVSRRIFQTQTSSVQEFPQLI
other: BK channel gating modulation [1]: abolishes | expression_or_secretion ([2]; control: γ2 WT): decreases

B9: BK channel γ3 subunit (LRRC55): tunicamycin (protein)
parent chain: MGDTWAQLPWPGPPHPAMLLISLLLAAGLMHSDAGTSCPVLCTCRNQVVDCSSQRLFSVPPDLPMDTRNLSLAHNRITAVPPGYLTCYMELQVLDLHNNSLMELPRGLFLHAKRLAHLDLSYNNFSHVPADMFQEAHGLVHIDLSHNPWLRRVHPQAFQGLMQLRDLDLSYGGLAFLSLEALEGLPGLVTLQIGGNPWVCGCTMEPLLKWLRNRIQRCTADSQLAECRGPPEVEGAPLFSLTEESFKACHLTLTLDDYLFIAFVGFVVSIASVATNFLLGITANCCHRWSKASEEEEI
other: BK channel gating modulation, other: V1/2 [3]: abolishes, 160.1 ± 7.4 vs 115.0 ± 1.7 | localisation_or_trafficking ([4]; control: γ3 WT): abolishes

B10: BK channel γ1 subunit (LRRC26): tunicamycin (protein)
parent chain: MRGPSWSRPRPLLLLLLLLSPWPVWAQVSATASPSGSLGAPDCPEVCTCVPGGLASCSALSLPAVPPGLSLRLRALLLDHNRVRALPPGAFAGAGALQRLDLRENGLHSVHVRAFWGLGALQLLDLSANQLEALAPGTFAPLRALRNLSLAGNRLARLEPAALGALPLLRSLSLQDNELAALAPGLLGRLPALDALHLRGNPWGCGCALRPLCAWLRRHPLPASEAETVLCVWPGRLTLSPLTAFSDAAFSHCAQPLALRDLAVVYTLGPASFLVSLASCLALGSGLTACRARRRRLRTAALRPPRPPDPNPDPDPHGCASPADPGSPAAAAQA
other: BK channel gating modulation, other: fraction of channels not modulated ([1]; control: γ1 WT): decreases | expression_or_secretion ([2]; control: γ1 WT): no change | localisation_or_trafficking, other: percent decrease [4]: decreases

B11: BK channel γ1 subunit (LRRC26): N147Q (protein)
parent chain: MRGPSWSRPRPLLLLLLLLSPWPVWAQVSATASPSGSLGAPDCPEVCTCVPGGLASCSALSLPAVPPGLSLRLRALLLDHNRVRALPPGAFAGAGALQRLDLRENGLHSVHVRAFWGLGALQLLDLSANQLEALAPGTFAPLRALRNLSLAGNRLARLEPAALGALPLLRSLSLQDNELAALAPGLLGRLPALDALHLRGNPWGCGCALRPLCAWLRRHPLPASEAETVLCVWPGRLTLSPLTAFSDAAFSHCAQPLALRDLAVVYTLGPASFLVSLASCLALGSGLTACRARRRRLRTAALRPPRPPDPNPDPDPHGCASPADPGSPAAAAQA
expression_or_secretion ([2]; control: γ1 WT): no change | localisation_or_trafficking, other: percent decrease [4]: decreases
